Test results as given in patent US20240115742A1, “FLUORINATED FIBERS FOR MULTIMODAL 1H AND 19F MRI, ULTRASOUND, FLUORESCENCE DETECTION AND CONFORMATIONAL AND TEMPERATURE DETECTION BY 19F MRS” (New York University, priority 2022, published 2024).
“And” between values parts separate entries of the source, which are not always exact repeats. Equal entries are not always repeated. Where two headings read alike, the source gives them in different places. Square brackets hold non-standard residues; d marks the D form. Ends that are not written are not given here. LTF = trifluoroleucine

Assays:
[1] = Fluorescence recovery after photobleaching (FRAP); conditions: one-phase association fit
Protocol: Protein fibrils are capable of blue autofluorescence as a result of protein self-assembly. Fluorescent recovery after photobleaching (FRAP) is measured by photobleaching using a 405 nm laser and measuring the spot intensity over time. This behavior was previously confirmed in the Q protein in a recent characterization. Using the correlation between autofluorescence and fibrilization, the relative autofluorescence of the coiled-coil protein hydrogels was measured. […] To assess the relative laser response, hydrogels were subjected to FRAP imaging using two 100% intensity bleaches at 405 nm excitation followed by imaging at 2 second frame intervals (FIG. 53c).
Confocal Imaging and Fluorescence Recovery After Photobleaching (FRAP). FRAP experiments were performed with a Stellaris 8 Falcon laser scanning confocal microscope on an inverted DMi8 CS stand equipped with 63X NA 1.4 lens. Images were taken with a laser at 405 nm excitation. A pre-bleach image was taken followed by two bleach images using 100% laser intensity for 1.5 s. Following, 41 images were taken post-bleach at 2 s intervals. To measure recovery, FIJI (version 2.3.0) was used to automate background and recovery imaging following photobleaching. Independent background intensities were fit to a one-phase decay equation in GraphPad Prism. Background loss, as a result of photobleaching, from fit values were added to spot intensity values before being fit to a one-phase association equation in GraphPad Prism.

[2] = Tube inversion concentration-temperature phase diagram; assay type: physicochemical; conditions: for solubility limit: 50 mM Tris, 500 mM NaCl, pH 8.0; for UCST: at solubility limit, extent of gelation η 0.5
Protocol: Tube Inversion Test. Immediately after concentration to 2 mM, the protein was incubated at 4° C. over the course of two weeks after aliquoting 150 μL into a 2 mL Eppendorf tube. The samples were visually assessed for gelation by inverting the tubes at 12-hour time intervals thereafter, with gelled samples not flowing upon inversion.
Gelation. To study the relative gelation of Q2 as compared to the previously reported coiled-coil hydrogel, Q, protein was successfully expressed (FIG. 24), purified (FIG. 25), and concentrated to 2 mM (1% w/v) in Tris buffer (50 mM Tris, 500 mM NaCl) at pH 8.0. Purity of the protein was measured to be >99% by SDS-PAGE (FIG. 26) and concentration was measured by BCA assay. Immediately following concentration, the gelation process of Q2 was studied using the microrheology assay described previously following incubation at 4° C. Separately, 150 μL samples were aliquoted for tube inversion tests performed after 2 weeks of incubation for visual assessment of gelation over time at 4° C. (FIG. 19a-d) and at concentrations from 1 mM to 3.5 mM with temperatures 5° C. to 25° C. using 0.5 mM and 5° C. step sizes, respectively, to create a matrix-based phase diagram (FIG. 19e). Temperature and concentration ranges were selected based on preliminary tube-inversion testing at high and low ends of the ranges.
Thermoresponsiveness and material strength. UCST behavior of protein hydrogels was assessed by testing […] samples via tube inversion in 2 mL microtubes after incubation for two weeks at various temperatures and concentrations. Temperature conditions were modulated in the range of 5-40° C. The concentration range was modified depending on if precipitation was visually noticeable in the microtube at an earlier concentration, indicating a solubility limit to our phase diagram, as has been done previously. […] As done with Q2, the UCST of the hydrogels was determined using a bivariate linear relationship for the extent of gelation where tubes that passed gelation by tube inversion were assigned a value of 1 (shown in black in FIG. 52a and FIG. 64a-d) and tubes that failed gelation by tube inversion (shown in red in FIG. 52a and FIG. 64a-d) were assigned a value of 0. The heatmap in FIG. 52a and FIG. 64a-d was used to denote the range of extent of gelation where the equation was employed to solve for the UCST using the solubility limit and solving for an extent of gelation, η, value of 0.5. The UCSTs (FIG. 52b) for the hydrogels studied here were 13.0° C., 35.9° C., 33.6° C., 17.5° C., and 22.9° C. for Q3-7, respectively, as compared to 17.0° C. for Q and 22.0° C. for Q2 found previously. Bivariate regression allowed for solving the coefficients for the dependence of temperature and concentration on gelation.
Tube Inversion. Binary sol-gel behavior was assessed using tube inversion. Immediately after concentration to 2 mM, 150 μL of Q hydrogel variants were incubated in 2 mL microtubes at 4° C. for two weeks. Gelation was visually observed by inverting the microtube and inspecting the sample for flow from the top of tube.

TEM of protein fibers = assay type: physicochemical; conditions: for average protein fiber diameter (TEM): fibers, 50 mM NaH2PO4 pH 4.0
Protocol: (§1) Transmission Electron Microscopy. Transmission electron microscopy (TEM) images were taken with a FEI Talos L120C transmission electron microscope. Protein fiber samples were diluted to 50 μM and 3 μL was spotted on Formvar/carbon-coated copper grids followed by 5 μL wash with water, and 3 μL staining with 1% v/v uranyl acetate solution each with incubation times of 1 min at RT. Fibrils were sized in ImageJ software (Version 1.52q).
as §1, with “Samples” for “Protein fiber samples”, “by a” for “by”, “min. Between steps, filter paper was used to wick the grids. Following imaging, fibrils” for “min at RT. Fibrils”

Parallel plate rheology = assay type: physicochemical; conditions: 10 Hz, 5% strain
Protocol: Rheology. Mechanical integrity of the Q2 hydrogel was assessed using a stress-controlled rheometer (Discovery Hybrid Rheometer 2, TA Instruments) equipped with a parallel plate geometry. After complete gelation of a 2 mM sample at 4° C., the sample was loaded onto the 8 mm diameter lower and upper plates with a 0.2 mm geometry gap. Strain and frequency settings were informed from previous Q hydrogel studies where the storage modulus (G′) and loss modulus (G″) were measured over the frequency range 0.1-10 Hz with a 5% oscillation strain.
Rheology. Q hydrogel variants were assessed for relative mechanical integrity with a stress-controlled rheometer (Discovery Hybrid Rheometer 2, TA Instruments) equipped with a parallel plate geometry. In parallel with microrheology measurements, 100 μL of each variant was incubated at 4° C. Upon gelation as assessed by microrheology, hydrogels were loaded onto an 8 mm diameter lower and upper plate with a 0.2 mm geometry gap. Storage modulus (G′) and loss modulus (G″) were measured from 0.1-10 Hz with 5% oscillation strain.

[3] = Q as previously described; cited from earlier work
[4] = system: type 2 mouse diabetic wound; experiment: Diabetic mouse wound model; assay type: in vivo; conditions: vs exosomes alone and untreated mice

Substance	Halftime [1]	K [1]	Tau [1]	solubility limit [2]	UCST [2]	average protein fiber diameter (TEM) (TEM of protein fibers)	storage modulus G′ (Parallel plate rheology)	loss modulus G″ (Parallel plate rheology)	fiber assembly size by TEM (TEM of protein fibers; 2 mM, 50 mM Tris, 500 mM NaCl, pH 8.0, 4 °C, n=20)	diameter of large fiber aggregates (TEM of protein fibers; as E88)	median fiber diameter (TEM of protein fibers; as E88)	striation (protofibril) size by TEM (TEM of protein fibers; n=20)	UCST [3]	diabetic wound closure [4]
Q2: coiled-coil protein redesigned from Q for reduced lateral assembly, SEQ ID NO: 11 (MRGSHHHHHHGSIEGRVKELLFLKKTAEQMLEELKETNKALHDVRHLLENQSKL) [Protein Q2]	11.1 s	0.1 s⁻¹	16.0 s	3.5 mM	22.0 °C	91±37 nm	289.6±86.9 Pa	–	–	–	–	–	–	–
Q3: Q variant with V44I pore mutation, SEQ ID NO: 12 (MRGSHHHHHHGSIEGRVKEILFLKNTAYQMLLELKETNEALYDIRHLLQQQSKL) [Protein Q3]	34.8 s	0.0 s⁻¹	50.1 s	–	13.0 °C	130±27 nm	83±35 Pa and 82.5 ± 35.4 Pa	12±2 Pa and 12.3 ± 1.7 Pa	–	–	–	–	–	–
Q2LTF: protein-engineered fluorinated coiled-coil fiber, Q2 with trifluoroleucine, SEQ ID NO: 20 (MRGSHHHHHHGSIEGRVKE[LTF][LTF]F[LTF]KKTAEQM[LTF]EE[LTF]KETNKA[LTF]HDVRH[LTF][LTF]ENQSK[LTF]; ends and bridges not checked) [Protein Q2LTF]	–	–	–	–	–	–	–	–	215.8±38.6 nm	≤ 840 nm	181.7 nm	3.6±0.8 nm	–	–
Q: rationally designed pentameric coiled-coil derived from C, SEQ ID NO: 23 (MRGSHHHHHHGSIEGRVKEITFLKNTAPQMLRELQETNAALQDVRELLRQQSKL) [reference compound]	9.9 s	0.1 s⁻¹	14.3 s	3.5 mM	17.0 °C	208±82 nm	–	–	–	–	–	–	~16 °C and 16.2 °C	–
Q5: Q hydrogel variant from Rosetta Monte Carlo search, SEQ ID NO: 14 (MRGSHHHHHHGSIEGRVKEITFIKKTIEQIAEEMKEINKAIHDIRHALENISKK) [Protein Q5]	12.3 s	0.1 s⁻¹	17.7 s	3.5 mM	33.6 °C	–	229±52 Pa and 228.7 ± 52.2 Pa	12±6 Pa and 11.8 ± 6.1 Pa	–	–	–	–	–	faster time to closure
